Results reported in publication PMC8442553 (Science (New York, N.Y.), 2019).

T1: Rsc8 (yeast, UniProt P43609 1-557)
T1 sequence: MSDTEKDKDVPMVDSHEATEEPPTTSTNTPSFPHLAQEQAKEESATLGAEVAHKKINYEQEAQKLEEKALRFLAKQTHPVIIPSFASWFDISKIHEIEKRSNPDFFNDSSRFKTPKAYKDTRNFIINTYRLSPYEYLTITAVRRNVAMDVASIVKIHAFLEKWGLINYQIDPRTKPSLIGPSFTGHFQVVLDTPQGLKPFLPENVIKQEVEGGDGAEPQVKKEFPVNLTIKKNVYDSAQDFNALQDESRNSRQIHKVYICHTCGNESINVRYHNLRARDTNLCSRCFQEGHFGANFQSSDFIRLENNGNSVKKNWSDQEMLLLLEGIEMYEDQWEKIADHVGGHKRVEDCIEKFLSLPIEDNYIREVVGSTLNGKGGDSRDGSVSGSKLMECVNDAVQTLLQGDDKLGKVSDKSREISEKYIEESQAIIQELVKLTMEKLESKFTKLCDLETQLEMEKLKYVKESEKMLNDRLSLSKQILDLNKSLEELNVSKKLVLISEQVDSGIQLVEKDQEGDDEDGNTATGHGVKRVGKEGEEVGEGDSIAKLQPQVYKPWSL

T2: Sth1 (yeast, UniProt P32597 1-1359)
T2 sequence: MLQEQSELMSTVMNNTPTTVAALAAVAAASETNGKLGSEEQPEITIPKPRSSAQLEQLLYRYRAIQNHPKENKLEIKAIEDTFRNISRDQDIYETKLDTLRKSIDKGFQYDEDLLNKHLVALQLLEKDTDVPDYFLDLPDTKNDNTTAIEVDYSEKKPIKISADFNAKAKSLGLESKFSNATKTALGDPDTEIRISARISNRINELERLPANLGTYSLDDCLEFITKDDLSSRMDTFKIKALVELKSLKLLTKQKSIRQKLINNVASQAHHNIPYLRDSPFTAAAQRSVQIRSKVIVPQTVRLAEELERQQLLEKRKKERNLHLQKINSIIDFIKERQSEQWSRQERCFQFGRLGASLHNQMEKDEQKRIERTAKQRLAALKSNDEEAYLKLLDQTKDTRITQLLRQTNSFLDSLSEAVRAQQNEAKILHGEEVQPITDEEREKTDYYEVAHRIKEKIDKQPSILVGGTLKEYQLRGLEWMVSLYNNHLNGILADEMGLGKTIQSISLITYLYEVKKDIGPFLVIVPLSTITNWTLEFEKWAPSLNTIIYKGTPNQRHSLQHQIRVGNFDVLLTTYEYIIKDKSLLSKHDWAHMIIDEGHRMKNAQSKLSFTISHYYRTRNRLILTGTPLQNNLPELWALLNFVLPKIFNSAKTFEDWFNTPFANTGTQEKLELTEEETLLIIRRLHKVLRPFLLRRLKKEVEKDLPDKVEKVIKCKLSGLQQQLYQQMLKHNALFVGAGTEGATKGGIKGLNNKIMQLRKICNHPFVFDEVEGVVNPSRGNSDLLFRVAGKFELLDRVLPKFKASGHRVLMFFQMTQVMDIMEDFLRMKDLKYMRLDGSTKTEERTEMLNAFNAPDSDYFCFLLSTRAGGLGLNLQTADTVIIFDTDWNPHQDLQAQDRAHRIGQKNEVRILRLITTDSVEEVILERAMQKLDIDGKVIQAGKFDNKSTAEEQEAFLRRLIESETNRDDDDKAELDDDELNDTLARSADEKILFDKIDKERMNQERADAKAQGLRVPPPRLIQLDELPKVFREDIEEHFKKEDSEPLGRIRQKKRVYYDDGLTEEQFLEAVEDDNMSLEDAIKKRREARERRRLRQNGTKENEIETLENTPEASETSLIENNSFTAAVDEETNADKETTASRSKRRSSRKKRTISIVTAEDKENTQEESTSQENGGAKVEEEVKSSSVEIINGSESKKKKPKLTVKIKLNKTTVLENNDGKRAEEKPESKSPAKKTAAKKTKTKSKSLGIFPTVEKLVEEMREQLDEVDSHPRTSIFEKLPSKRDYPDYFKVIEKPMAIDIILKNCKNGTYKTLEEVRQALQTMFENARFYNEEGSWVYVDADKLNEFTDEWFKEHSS

B1: Htl1 (natural protein, yeast)
chain: MSQNNTISSMNPERAYNNVTLKNLTAFQLLSQRENICELLNLVESTERHNSIINPERQRMSLEEMKKMLDALKNERKK
B2: Rsc7 (natural protein, yeast)
chain: MSDSEGGLASEVEHEKRSRSTSNRPNYAIDTEDLDIDENDENEDDDYREEEANEGVNEEEISDEEEQINKSGRNKRRHVDEEEDLSEDKGVTRSRNRSKFKKPVFPGIDDAEENLNPLKVVNEEYVLPDDPEGETKITADGDLLGGREFLVRTFTLTEKGNRKFMLATEPARIVGFRDSYLFFQTHPNLYKFILNQTQKNDLIDRGVLPYSYRNRQIALVTARGVFKEFGAKIIRGGKHITDDYYASELRTKGNVIEGKLAGDPIDKSARALETMMYPASENGINPAKNQVEFFEHRPHGHMSNSNIIASGSKLSSTNWLYQHSAACSRFNSDLFYDRVKVLLVDQQGLRDAYTNILHIPESTQSTTVLGWRRSKNDSPSDTSIVYETVIHDNDLNKPKTGLSEIPKEIYEDVVDEDVLRAITEQQNFEKCNEYI
B3: Rsc58 (natural protein, yeast)
chain: MTESVGGNKLVDFLVNVQSILNAASVKCHVVDESFPAKFFEKNPDKIYESYCKFIKNRSNSEGLIRNEDKLVLTTINKRFENGEYEPIQGGFYKLYHDIKLVCTILIHFYPQGTRNYQLVDKFYKFSSELLLRECCRIGIALTQTNNIKSRSGKLLSGNEMDEYDDDDATELDKIISYDFIKISMNYTVPISQTYQIRTKDMDLFSSIISKSNLDKRPHELPNTNFKINNVLPQTDIENEAPRLGFVGANTSNIPDPTLPPTEMMTRFLHPNWYALPTTVWLKYGNYNSWAPSFNENGTVVDSTTRGLIWLERIGYMDLYEKNEKKVKQEELLNTNEEGINRKQNDENNKNVDGKSNGVQDDGGDNDNDATIASANSESTENKEQFIIKLQNLYNWTPSNYIGDDEIENFRNGTPDKLVSDSLLKLKRLRKERILNKVLKPTTEERELYFKVKRILKEVILAKKVSKVPINNVRAFPVLQTNYNGSIPVVRAQPGRKRKHKK
B4: Arp7 (natural protein, yeast)
chain: MTLNRKCVVIHNGSHRTVAGFSNVELPQCIIPSSYIKRTDEGGEAEFIFGTYNMIDAAAEKRNGDEVYTLVDSQGLPYNWDALEMQWRYLYDTQLKVSPEELPLVITMPATNGKPDMAILERYYELAFDKLNVPVFQIVIEPLAIALSMGKSSAFVIDIGASGCNVTPIIDGIVVKNAVVRSKFGGDFLDFQVHERLAPLIKEENDMENMADEQKRSTDVWYEASTWIQQFKSTMLQVSEKDLFELERYYKEQADIYAKQQEQLKQMDQQLQYTALTGSPNNPLVQKKNFLFKPLNKTLTLDLKECYQFAEYLFKPQLISDKFSPEDGLGPLMAKSVKKAGASINSMKANTSTNPNGLGTSHINTNVGDNNSTASSSNISPEQVYSLLLTNVIITGSTSLIEGMEQRIIKELSIRFPQYKLTTFANQVMMDRKIQGWLGALTMANLPSWSLGKWYSKEDYETLKRDRKQSQATNATN
B5: Rtt102 (natural protein, yeast)
chain: MDPQTLITKANKVSYYGNPTSKESWRYDWYQPSKVSSNVQQPQQQLGDMENNLEKYPFRYKTWLRNQEDEKNLQRESCEDILDLKEFDRRILKKSLMTSHTKGDTSKATGAPSANQGDEALSVDDIRGAVGNSEAIPGLSAGVNNDNTKESKDVKMN
B6: Arp9 (natural protein, yeast)
chain: MAPFRQDSILIIYPRSQTTLVQFGLNEETFTVPELEIPTQIYRTTRQDGSYTYHSTNKDNKAELIKPIQNGEIIDISAFTQFLRLIFVSILSDRANKNQDAFEAELSNIPLLLITHHSWSQSDLEIITQYVFESLEINNLIQLPASLAATYSMISLQNCCIIDVGTHHTDIIPIVDYAQLDHLVSSIPMGGQSINDSLKKLLPQWDDDQIESLKKSPIFEVLSDDAKKLSSFDFGNENEDEDEGTLNVAEIITSGRDTREVLEERERGQKVKNVKNSDLEFNTFWDEKGNEIKVGKQRFQGCNNLIKNISNRVGLTLDNIDDINKAKAVWENIIIVGGTTSISGFKEALLGQLLKDHLIIEPEEEKSKREEEAKSVLPAATKKKSKFMTNSTAFVPTIEYVQCPTVIKLAKYPDYFPEWKKSGYSEIIFLGAQIVSKQIFTHPKDTFYITREKYNMKGPAALWDVQF

What follows are binders tested against T1, Rsc8 (assay: cryo-EM structure).
B1: binds.
B2: binds.
B3: binds.

The binders below were run against T2, Sth1 (assay: cryo-EM structure).
B4: binds.
B5: binds.
B3: binds.
B6: binds.
